Experimental findings from patent publication US20180163216, “GENE EXPRESSION IN BACTEROIDES” (Massachusetts Institute of Technology, published 2018) are described below.

One series has as its system T1, Int12 serine integrase.
T1 sequence: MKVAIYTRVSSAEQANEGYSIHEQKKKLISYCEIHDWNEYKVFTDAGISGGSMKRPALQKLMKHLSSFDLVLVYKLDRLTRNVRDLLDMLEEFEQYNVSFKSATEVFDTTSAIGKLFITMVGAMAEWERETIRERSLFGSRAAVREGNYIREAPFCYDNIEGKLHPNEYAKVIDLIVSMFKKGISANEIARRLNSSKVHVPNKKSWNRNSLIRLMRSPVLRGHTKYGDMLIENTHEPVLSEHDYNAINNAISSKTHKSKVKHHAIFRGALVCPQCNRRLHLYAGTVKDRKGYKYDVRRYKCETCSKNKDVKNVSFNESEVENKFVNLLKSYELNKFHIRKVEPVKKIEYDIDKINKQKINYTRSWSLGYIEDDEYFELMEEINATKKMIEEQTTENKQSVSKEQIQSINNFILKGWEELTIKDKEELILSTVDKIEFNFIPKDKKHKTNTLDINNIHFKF
The experiment in a line: cell_activity. The note with it: flipping in <1 day in mouse gut with rhamnose; also inversion by PCR in vitro culture.

Series [1] deals with RhaR (AraC/XylS-family activator) (Bacteroides thetaiotaomicron). The experiment in a line: cell_activity. The following applies: printed 104-fold (10^4); rhamnose-induced NanoLuc; K=0.3 mM rhamnose, n=1.4.
The target of series [2] is T2, LacIQ repressor (Escherichia coli, UniProt P03023 SEQ:5-363). The experiment in a line: cell_activity; fold induction by IPTG; K=86 uM IPTG. The following applies: expressed from PBT1311 in B. thetaiotaomicron; chain copies: 4. From the text: (§1) Next, an IPTG-inducible system was developed. Pairs of LacO1 operator sites were inserted in the strong PcfxA promoter in three locations: upstream of the −33 element (O1), between the −33 and −7 elements (O2) or just downstream of the transcription start site (O3) (FIGS. 7A-7B).
T2 sequence (P03023 2-360): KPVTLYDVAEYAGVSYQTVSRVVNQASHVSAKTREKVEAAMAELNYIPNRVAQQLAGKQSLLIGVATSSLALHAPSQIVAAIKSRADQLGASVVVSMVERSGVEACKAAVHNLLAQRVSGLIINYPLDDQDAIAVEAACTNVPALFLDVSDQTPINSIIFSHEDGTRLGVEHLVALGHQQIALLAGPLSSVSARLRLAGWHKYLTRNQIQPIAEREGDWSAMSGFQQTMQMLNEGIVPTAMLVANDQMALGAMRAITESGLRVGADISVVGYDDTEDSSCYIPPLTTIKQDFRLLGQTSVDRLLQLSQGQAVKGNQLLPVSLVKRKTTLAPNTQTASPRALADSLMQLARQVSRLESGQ

Series [3] has as its target T2, LacIQ repressor. The experiment in a line: cell_activity; fold induction by IPTG; K=6 uM IPTG. The following applies: expressed from PBT1311 in B. thetaiotaomicron; chain copies: 4.
From the text: as §1

Take Int12 attB/attP in memory array: the activity with Int12 serine integrase was over 90%. For the molecule “TATTTCGGAGAAAACATGCATAAATCATGCTTTTTTTGCATAAAAAGTAAAATTTATACTGATGTAAGGTTTGGCTATGCAGATTTGTGTCAAAATGCACATCCTTTCTATCAAAATGCGTAAGGAAAAGGAGGAAGGAACCGCCTATCTTTGCAATGTAGGTAAATGGATACCTTAAATATATAGACAAAATACC (double strand) [PBT3763]”, the activity in series [1] amounted to 10000 fold.

B1: PLacO13 (dsDNA)
DNA 1: TTACAAAGAAAATTCGACAAACTGTTATTTTTCTATCTATTTAAATTGTGAGCGGATAACAATTTGGGTGGGAAACTTTAGTTATGTACCTTTGTCGGCAATTGTGAGCGGATAACAATTAAATAAAGATATTCTCGTCAAACAAATATAAATAATATAAAC
DNA 2: GTTTATATTATTTATATTTGTTTGACGAGAATATCTTTATTTAATTGTTATCCGCTCACAATTGCCGACAAAGGTACATAACTAAAGTTTCCCACCCAAATTGTTATCCGCTCACAATTTAAATAGATAGAAAAATAACAGTTTGTCGAATTTTCTTTGTAA
In the series with LacIQ repressor [2], B1 had an activity of 8 fold.

B2: PLacO23 (dsDNA)
DNA 1: TTACAAAGAAAATTCGACAAACTGTTATTTTTCTATCTATTTATTTGAATTGTGAGCGGATAACAATTACCTTTGTCGGCAATTGTGAGCGGATAACAATTAAATAAAGATATTCTCGTCAAACAAATATAAATAATATAAAC
DNA 2: GTTTATATTATTTATATTTGTTTGACGAGAATATCTTTATTTAATTGTTATCCGCTCACAATTGCCGACAAAGGTAATTGTTATCCGCTCACAATTCAAATAAATAGATAGAAAAATAACAGTTTGTCGAATTTTCTTTGTAA
In the series with LacIQ repressor [3], B2 returned an activity of 22 fold.
